The target of assay [1] is biotinylated Gβ1γ2 mutant Arg314Ala (rat) (UniProt P54311). The assay can be described thus: phage ELISA, % of wild-type b-βγ. Background: An ELISA detects its analyte on a solid surface through an enzyme-linked reagent.
Assay [2] concerns the target biotinylated Gβ1γ2 mutant Asn230Ala (rat) (UniProt P54311). Put plainly: phage ELISA, % of wild-type b-βγ.
Assay [3] concerns the target biotinylated Gβ1γ2 mutant Asp246Ser (rat) (UniProt P54311). The assay can be described thus: phage ELISA, % of wild-type b-βγ.
Assay [4] deals with biotinylated Gβ1γ2 mutant His311Ala (rat) (UniProt P54311). The assay can be described thus: phage ELISA, % of wild-type b-βγ.
In assay [5] the target is biotinylated Gβ1γ2 mutant His62Ala (rat) (UniProt P54311). Put plainly: phage ELISA, % of wild-type b-βγ.
The target of assay [6] is biotinylated Gβ1γ2 mutant Leu117Ala (rat) (UniProt P54311). Put plainly: phage ELISA, % of wild-type b-βγ.
Assay [7] addresses biotinylated Gβ1γ2 mutant Lys57Ala (rat) (UniProt P54311). Put plainly: phage ELISA, % of wild-type b-βγ.
For assay [8], the target named is biotinylated Gβ1γ2 mutant Met101Ala (rat) (UniProt P54311). The assay can be described thus: phage ELISA, % of wild-type b-βγ.
For assay [9], the target named is biotinylated Gβ1γ2 mutant Met188Ala (rat) (UniProt P54311). The assay can be described thus: phage ELISA, % of wild-type b-βγ.
Assay [10] deals with biotinylated Gβ1γ2 mutant Phe292Ala (rat) (UniProt P54311). Put plainly: phage ELISA, % of wild-type b-βγ.
The target in assay [11] is biotinylated Gβ1γ2 mutant Trp332Ala (rat) (UniProt P54311). Put plainly: phage ELISA, % of wild-type b-βγ.
Assay [12] deals with biotinylated Gβ1γ2 mutant Trp99Ala (rat) (UniProt P54311). The assay can be described thus: phage ELISA, % of wild-type b-βγ.
Assay [13] deals with biotinylated Gβ1γ2 mutant Tyr145Ala (rat) (UniProt P54311). Put plainly: phage ELISA, % of wild-type b-βγ.
The target in assay [14] is biotinylated Gβ1γ2 mutant Arg314Ala (rat) (UniProt P54311). The assay can be described thus: flow cytometry, dissociation of Fαi1 from immobilized b-β1γ2.
For assay [15], the target named is biotinylated Gβ1γ2 mutant Asn230Ala (rat) (UniProt P54311). Described as above.
Assay [16] has as its target biotinylated Gβ1γ2 mutant Asp186Ala (rat) (UniProt P54311). Described as above.
For assay [17], the target named is biotinylated Gβ1γ2 mutant Leu117Ala (rat) (UniProt P54311). Described as above.
For assay [18], the target named is biotinylated Gβ1γ2 mutant Lys57Ala (rat) (UniProt P54311). The description is as above.
For assay [19], the target named is biotinylated Gβ1γ2 mutant Met101Ala (rat) (UniProt P54311). The description is as above.
In assay [20] the target is biotinylated Gβ1γ2 mutant Met188Ala (rat) (UniProt P54311). The assay is described as above.
In assay [21] the target is biotinylated Gβ1γ2 mutant Trp332Ala (rat) (UniProt P54311). The assay is described as above.
Assay [22] deals with biotinylated Gβ1γ2 mutant Trp99Ala (rat) (UniProt P54311). Described as above.
The target in assay [23] is biotinylated Gβ1γ2 mutant Tyr145Ala (rat) (UniProt P54311). Described as above.
Assay [24] deals with biotinylated Gβ1γ2 mutant Tyr59Ala (rat) (UniProt P54311). Described as above.
Assay [25] addresses biotinylated Gβ1γ2, wild-type (BAP-rat Gβ1 with Gγ2) (rat) (UniProt P54311). The assay is described as above.
Assay [26] deals with biotinylated Gβ1γ2 mutant Arg314Ala (rat) (UniProt P54311). Put plainly: phage ELISA, % of wild-type b-βγ. The source holds these as a separate data set.
Assay [27] deals with biotinylated Gβ1γ2 mutant Asn230Ala (rat) (UniProt P54311). The assay can be described thus: phage ELISA, % of wild-type b-βγ. The source holds these as a separate data set.
In assay [28] the target is biotinylated Gβ1γ2 mutant Asp186Ala (rat) (UniProt P54311). Put plainly: phage ELISA, % of wild-type b-βγ.
The target in assay [29] is biotinylated Gβ1γ2 mutant Asp246Ser (rat) (UniProt P54311). Put plainly: phage ELISA, % of wild-type b-βγ. The source holds these as a separate data set.
For assay [30], the target named is biotinylated Gβ1γ2 mutant His311Ala (rat) (UniProt P54311). Put plainly: phage ELISA, % of wild-type b-βγ. The source holds these as a separate data set.
Assay [31] deals with biotinylated Gβ1γ2 mutant Leu117Ala (rat) (UniProt P54311). The assay can be described thus: phage ELISA, % of wild-type b-βγ. The source holds these as a separate data set.
Assay [32] addresses biotinylated Gβ1γ2 mutant Lys57Ala (rat) (UniProt P54311). Put plainly: phage ELISA, % of wild-type b-βγ. This is another data set of the same source.
Assay [33] has as its target biotinylated Gβ1γ2 mutant Met101Ala (rat) (UniProt P54311). The assay can be described thus: phage ELISA, % of wild-type b-βγ. This is another data set of the same source.
For assay [34], the target named is biotinylated Gβ1γ2 mutant Met188Ala (rat) (UniProt P54311). The assay can be described thus: phage ELISA, % of wild-type b-βγ. The source holds these as a separate data set.
Assay [35] has as its target biotinylated Gβ1γ2 mutant Trp332Ala (rat) (UniProt P54311). The assay can be described thus: phage ELISA, % of wild-type b-βγ. The source holds these as a separate data set.
For assay [36], the target named is biotinylated Gβ1γ2 mutant Trp99Ala (rat) (UniProt P54311). Put plainly: phage ELISA, % of wild-type b-βγ. This is another data set of the same source.
For assay [37], the target named is biotinylated Gβ1γ2 mutant Tyr145Ala (rat) (UniProt P54311). The assay can be described thus: phage ELISA, % of wild-type b-βγ. The source holds these as a separate data set.
For assay [38], the target named is biotinylated Gβ1γ2 mutant Tyr59Ala (rat) (UniProt P54311). The assay can be described thus: phage ELISA, % of wild-type b-βγ.
Assay [39] deals with T1, biotinylated Gβ1γ2, wild-type (BAP-rat Gβ1 with Gγ2) (rat, UniProt P54311 1-340; P63212 2-68, biotin on the lysine acceptor residue of the BAP).
T1 construct: immobilized on streptavidin in the assays; also called b-βγ; b-Gβ1γ2; not shown: 20 amino acid biotin acceptor peptide (BAP) fused to the N-terminus
The assay can be described thus: phage ELISA on immobilized b-βγ. As for the experimental part: Phage ELISA assays used to assess peptide binding to wild-type and mutant b-βγ were performed according to standard methods (Smrcka and Scott (2002) Methods Enzymol. 344:557-76). Briefly, 1 μg streptavidin was immobilized in the well of a […] overnight at 4° C. The wells were blocked with 100 μL of 2% bovine serum albumin (BSA) in Tris-buffered saline (TBS) for 1 hour at 4° C. followed by three washes of 1×TBS/0.5% TWEEN®. […] The wells were washed, followed by the addition of 1×10⁶ to 1×10¹⁰ phage particles and incubated at 4° C. for 3 hours. The wells were then washed six times with TBS/0.5% TWEEN® followed by addition of 40 μL of 1:5000 dilution of anti-M13 antibody (Pharmacia, Uppsala, Sweden) and incubated at room temperature for 1 hour. The wells were washed, followed by the addition of 40 μL of (2,2′-Azino-bis(3-ethylbenzthiazoline)-6-sulfonic acid (ABTS) and the […] reaction was monitored at 405 nm. Non-specific binding was subtracted for each reading.

The target of assay [40] is T1, biotinylated Gβ1γ2, wild-type (BAP-rat …). The assay can be described thus: flow cytometry competition, blocking Gα-Gβγ interactions. As to the method: Assays were used to determine peptide effects on Gα-Gβγ interactions included competition and dissociation assays (Ghosh, et al. (2003) supra). […] The bead-associated fluorescence was then recorded in a BD Biosciences FACSCALIBUR™ flow cytometer. Data was corrected for background fluorescence and fit with a sigmoid dose response curve using Graph Pad Prism 4.

The record followed here is patent US20090221691A1 (UNIVERSITY OF ROCHESTER, published 2009).

Where two headings read alike, the source gives them in different places.

As for phage displaying SIGK peptide, the % of Wild-Type Signal in [1] stood at 50.2%; in [2] it was 22.4%; in assay [3], 66.5%; in assay [4] it was 94.3%; in assay [5], 111%; in [6], 2.1%. The % of Wild-Type Signal in assay [7] was found to be 18.6%; in assay [8], 32.2%; in assay [9], 2.5%; in [10], 109%; in assay [11], 7.1%; in assay [12], 66%. In addition, the % of Wild-Type Signal in assay [13] came out at 0.8%.

Consider Fluorescein-labeled Gαi1, for which the koff (usually a measure of how fast the partners let go of each other) in [14] was 0.00197 s⁻¹; in [15], 0.00247 s⁻¹; in assay [16], 0.00267 s⁻¹; in assay [17], 0.00602 s⁻¹; in [18] it was 0.0024 s⁻¹; in assay [19] it was 0.0019 s⁻¹. Moreover, the koff in assay [20] turned out to be 0.00203 s⁻¹; in assay [21], 0.00502 s⁻¹; in assay [22], 0.0048 s⁻¹; in [23] it was 0.00258 s⁻¹; in [24], 0.00302 s⁻¹; in assay [25] it was 0.00205 s⁻¹.

WCPPKLEQWYDGCA (Group IV) [phage C2 (WCPPKLEQWYDGCA)]: the % of Wild-Type Signal in assay [26] was 1.3%; in assay [27], 0%; in assay [28] it was 267%; in assay [29] it was 5.9%; in assay [30], 11.7%; in [31], 1.5%. The % of Wild-Type Signal in [32] is -1.2%; in [33], 157%; in assay [34], -0.7%; in assay [35] it was 4.7%; in [36] it was -1%; in assay [37], 4.5%. Also, the % of Wild-Type Signal in [38] was -1.7%. In assay [39], the binding result is listed as “binds”.

Turning to SIRKALNILAYPDYD (Free peptide) [SIRK(Gly10Ala)], in [40], the IC50 (commonly the concentration that inhibits the measured activity by half) was around 80 µM.

Turning to SCGHGLKVQSTIGACA (Group II) [phage 3C (SCGHGLKVQSTIGACA)], the % of Wild-Type Signal in [26] turned out to be 8.3%; in [27], 4.1%; in [28], 35%; in [29] it was 2%; in assay [30], 30.5%; in assay [31] it was 10%. In addition, the % of Wild-Type Signal in assay [32] was 3.6%; in assay [33], -4.2%; in [34], -5.7%; in assay [35], -0.3%; in assay [36], -0.5%; in assay [37], 2.7%. The % of Wild-Type Signal in assay [38] came out at 8.5%. Further, the binding result in assay [39] is given as “binds”.

With SCEKRLGVRSCT (Group III) [phage C5 (SCEKRLGVRSCT)], the % of Wild-Type Signal in assay [26] is 76.5%; in assay [27], 33.5%; in assay [28], 45.7%; in assay [29], 56.3%; in assay [30] it was 58.7%; in assay [31], 28.5%. Besides, the % of Wild-Type Signal in assay [32] was 5.6%; in assay [33], 47.8%; in [34], 97.2%; in assay [35], 3.2%; in assay [36], 39%; in assay [37], 16.7%. For the same molecule, the % of Wild-Type Signal in assay [38] was 73.8%. The binding result in assay [39] is reported as “binds”.
